Test results from the domain aggregation screens of Martell et al. (2025).

Test: soluble fraction after stress (log2 fold change); higher = more stays soluble; pooled small domains, quantitative proteomics
Conditions: stress: pH 4
Method in brief: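 With high-throughput quantitative proteomics, pooled custom libraries of small protein domains were measured after pH 4 stress. Each domain's soluble amount after the stress gives a fold change taken as aggregation propensity. Higher log2 values mean more of the domain stayed soluble.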

First: HMVMSTDAELILEYLAKHQGEMEITDKSSPELIMDTFNMSKGAFKRALGSLYKSKTVVIESTKVLLNT
Second: HMKNEFRVYPNPANKEIVTFNQTQDIEVYDTLGKLVLKAKNTNTLDTKSFHSGIYFIKTGSGLTRKLVV
The “soluble fraction (log2)” value of the first is lower: -0.0971 for the first, no less than 0.43 for the second.

First: HMGDPYAILGLLPGASMEDVRHAWRRQAAENHPDRMLQRGAPPEFVEIAREKTAAINAAYARIREELSI
Second: HMKMVEIDYGKFLTMLDTGKVKSVEIENNRIAINPSSSKDKNIYITGRMDDPELVDRLKNAKVEFTKVIP
The “soluble fraction (log2)” value of the first is lower: -0.638 for the first, -0.0394 for the second.

“HMLAEEAFNKQAATAGYVYRDGSYHPAASVAQYDAMPRNYRTNTMAQELSRSQVESQLQQSQ” and “HMAAEELTVDKILTAQSFGVTAEAILAKVNDPANTVATLTQADVDRLRAAGVPEGVVTALQARAPQ” are within 0.2 log units of each other in “soluble fraction (log2)” value: -0.104 for the first, -0.155 for the second.

Going from “HMKQLLHLVIGGELKDVRGIEFEDLSKIDFVGAFPSYKAAYDAWKNAAQRTVDNAEMRYFILHAHR” to “HMATTIEAPMPGKILDVKVNPGQAVSYGQVVLTMEAMKMETEIVAPADGTVASVLVKSGDMVETGAALVSL”, the “soluble fraction (log2)” value rises from -1.37 to -0.268.

“HMKYSELLLEIILQSKEHPTAEQIFIEAKKRNPKIVQATVYNNLKNLLAQGRVIRISNPGQPDRYDNT” and “HMSPAVSLITGKLGAETYYKQGLKKAKEKDYEGALDDLIKAYEFFPDKKIKTQVDKLASFLGKPPIL” are within 0.2 log units of each other in “soluble fraction (log2)” value: 0.0505 for the first, 0.0374 for the second.

Compared with “HMYAGTWISESGQWKYRNDDGSFAKGWFQDLDSRWYYFDANGHMLSDTLTPDGYRLGEDGAWVND”, “HMIMMTLGEKIRSIRKAKGMTQQELAEKLNTTKQTIGKYEKGIVTNLPLFRINELARALSTTPAYLTGW” is higher in “soluble fraction (log2)” value: -1.42 for the first, no less than 0.43 for the second.

Compared with “HMLPKAERREQLMAVARSVFAEQGYHTTSMEIIAETAGVSKPLLYQHFPSKLDLYLALLDAGID”, “HMEPQSRTAYRLIEAMIVTHELPPGSRISEASLSAKLGIGRTPIREALQRLSFEGTVKIVPRSGAFVSEI” is higher in “soluble fraction (log2)” value: -1.1 for the first, 0.183 for the second.

First: HMNIQPAMLNAANGGVAWKERGISMSQIMKRNAHTAEGSQKLWDYAFENFFQKNIDAGNIRDDR
Second: HMQMSERENTILLTKRYIERGEYERAMNLLDSLLIKNALDEEALAMIDEIIALKAGASLQDFPRY
The “soluble fraction (log2)” value of the first is higher: -0.237 for the first, -1.48 for the second.

Compared with “HMQNDILIQADEIVGDYFDMDKEALKMNKQAVIADIEKRQATAQGDEASALHYAKQKVENEFEDDGSQKD”, “HMAVGVFQKEDGYWGYRFSIIVDGKTIARRKFTDENGSKLRTKSEAVKARAAAMVAARMERVS” is higher in “soluble fraction (log2)” value: -0.233 for the first, 0.24 for the second.

Going from “HMLVTQSITVPMAMSGIRLDAALAMLFPDHSRNRLKAWLDDGHILVDGAVWAGKQRLEGNEEITATLPEAK” to “HMISVENLSNREFEIFQLIGNGFSTKEMAKKLNLSIYTVESHKKNIKEKLKLKNSSDLSKYAIQWVIMQN”, the “soluble fraction (log2)” value falls from -0.189 to -1.35.

Compared with “HMFRPRIEPGAKGSYVLEVQKRLAKLGYEHAGFDGVYGPGTERAIMQLQRDKGLPVTGIVDMRTYEALGLF”, “HMELDMTFGEKIQKLRKESGLSQEELSYQLGVSRQAISKWERDSGYPETEKIVRMSKIFDVTLDYLLNE” is lower in “soluble fraction (log2)” value: no less than 0.43 for the first, -1.06 for the second.

Compared with “HMEIEETKKNSRTKIPENFDYKLINGLSNEIRAKLELIRPIDLLQASRIDGMTPAALTLVHLWIKKYSG”, “HMQNDDLTKLDGIGPYIEQRLNDIGIYNYEQLSKLNTEDIQKITELIDFFPGRIERDNWVSQAQLLKI” is lower in “soluble fraction (log2)” value: -0.419 for the first, -0.807 for the second.

Going from “HMNIVKGDTTANVRVVQQRLYNLGYYTYKVDGIWGTRTKTAVKKFQKDKGLVADGIVGAKTEKALGITLT” to “HMVEPTDFTYLKAEVETAKALKQADYTVATWKSFAGELAEAEEVIAKTDASQAEVNEALSHLQAAEKELV”, the “soluble fraction (log2)” value rises from -0.252 to 0.215.

Compared with “HMNRIFQERVVPAELDTLRADKVAASLFSDFSRNELAHWIKMGDLSINGGVKKAKDKLFEGDVLILDVEIV”, “HMGGAYATVKLSSSSSQLNVRASASTASRVVARLSHGFRVEVLGVSGDWVKIRALGVEGYVARAYLALEGE” is higher in “soluble fraction (log2)” value: -0.679 for the first, -0.17 for the second.

Going from “HMQSAMALTKDLIEQQGKYYHRGQPFTGVGFAKNKKGKFVTEEPFKNGLLHGKRVNYDHNGHVLAREK” to “HMEIYIDGNKYVGELRNGKPNGRGTITYTGDGSKYVGEWKNGKRYGRGKMAYTNGTTKEGVWKDDEFLYAT”, the “soluble fraction (log2)” value rises from -0.12 to 0.377.

Going from “HMPDIFDRGTAHITDAASGVAITFTRTFRIPPEVTMTHKGGTVVAIARLVGSITTGGFTAVLENT” to “HMHVSLSGKIHSELRKLILNGELKAGERLPSEPDLAHELGVSRNSLREAIGLLQREGLLLKKHGIGTFVTD”, the “soluble fraction (log2)” value rises from -0.0848 to 0.183.

First: HMGDWEDFWEKEARRRKLSLDYQVVRSLSRWSREYDWGEEDVEQFLSQFPEGETVKMEDVELYFE
Second: HMAKMPSIIIMKDGVIRTSELEQIERDENWLNEEMKKQHIDNPEDVFLAEFWDGKVNFILQDGKIK
The “soluble fraction (log2)” value of the first is lower: -1.41 for the first, -0.78 for the second.

Going from “HMNVNEIREMYPEGTQIVLTEMRGENQMPYGLKGTVKFVDDAGQIHMKWENGSSLALNINEDTFEKVE” to “HMSYDAINGYEPSDLRGSLTLEQTASMLNLPLTDVYARLGLPANYPSGATLKDGAADMGMGLSDFKHQLF”, the “soluble fraction (log2)” value rises from -0.471 to 0.0723.

Going from “HMLERPLKLKSHYVSTIYEKVAVQYSEGEEKKSVMGTLIEVNQDTIVLDDRGTIIEIPFKSITRAKTVF” to “HMPTITIQRGIILSSTTKGFIDELSHSQIKNAIVERLGEHHVMIHESQLDAVIKYAQKKEAVINIYL”, the “soluble fraction (log2)” value rises from -0.364 to -0.0875.

First: HMSDIPEGYMSRVQLGDEWGIHLATFDKAVIAVKEKLGTVVFIDKSNNTTAGYSPEQQTIIYDWLAEN
Second: HMATVHPIRIQGGMTTQQGGKTVWLWVSDEGRLMTEDEIAGESGGTVSSRMVRGVRVLTGTGVIYG
The “soluble fraction (log2)” value of the first is higher: 0.29 for the first, -0.57 for the second.

Compared with “HMNGTGSVYKLSGKRRNPWRAVVTNGWAYNEEKGKLVQNRVTIGYYHTRDEAIQAIANYNSSP”, “HMSVFGDNVARLRAEHGMSQRALAERLEITNGTVAAWESRDTLPDYDRIRQIAEIFDVPIPQLFAKYIP” is lower in “soluble fraction (log2)” value: -0.125 for the first, -1.2 for the second.

Going from “HMTMGAAEAQALKDEALELYRTGGTQEDVVRAIEMYEQAAEAGNAQAASDLAYLKANGVYETAMNN” to “HMSLDTASDKELLGLIVSEPIATRVLDAFRTLDATLFRTTPAELAAAAGVSSEHAQKIKAVAEIAARMLKP”, the “soluble fraction (log2)” value rises from -0.75 to -0.363.

First: HMYMKMNDRIRSRRKELKMTQSVLAKLVGVNRVTITGWESGDYKPGGENLQALAAALEKTPQWLLDGKD
Second: HMYRWSEEIFEKLRSDIMAALDLSREQNDEEIYRFIETEVEEYSQNNLLTLKEREQLEHLLFNSL
The “soluble fraction (log2)” value of the first is higher: no less than 0.43 for the first, -1.12 for the second.

“HMPASTSIPYSDFISRVESGDVQEAKIGESAITGTYKDGSQFKTVKPPTLDTNLMPTLIQNKVNVVGVEP” and “HMLSSAAAIDRILAGGTAAMNHRQFDAALTSFNTVIEMRPDFAEGWNKRATLYYLIGEYERSIADVERTLA” are within 0.2 log units of each other in “soluble fraction (log2)” value: 0.0215 for the first, 0.0555 for the second.

Going from “HMSKLSLREIVKKFEEQIIQLHKRGLNHSEISREIVTKNSIDLGDSHIDSLRRAISVHLQTP” to “HMNVQGFVFDLAEPLDKVPSIEGFPLKLEDPLTLVAAVNKDRSINALFAELSKLNIKIKSMRNE”, the “soluble fraction (log2)” value falls from -0.201 to -0.458.

Compared with “HMRTVAERYGLTAGQWRVLELLTQGKTNRQIAEMLDVTEGTVKIHVSAIFKAMKVTNRTQALLLAKKH”, “HMNSLKNKNNLIALVGASNDKNKYGNKILLDLVSKGHNVVPINPKEDTVAGLKSYNNVSELSEKPSI” is higher in “soluble fraction (log2)” value: -0.522 for the first, -0.202 for the second.

Going from “HMQIKNVDYGTFLDMLDEKNVKEVEIEDEQIVFTDNADPTGYYTTGRMEDPDLVDRLHNSGATFSAI” to “HMAMPQPVARALHRLGQDISAARRMRRLSQEDLAQRIGTSLSTVRRMEDGYPGTALHTFLRALHML”, the “soluble fraction (log2)” value rises from -0.841 to -0.4.

In the case of “HMVKETNYSFFLKQIDAGTVEQVQIEDTEIKFKVSTADGKEQVYSTVRVEDPDLVDRLYSKGNIDFTGN”, the “soluble fraction (log2)” value is reported as -1.3.
